Six molecules from PMC4285326, “Structure and interactions of the Bacillus subtilis sporulation inhibitor of DNA replication, SirA, with domain I of DnaA” (Molecular Microbiology, 2014) can be followed below.

B1: SirA (sporulation inhibitor of DNA replication), Bacillus subtilis (natural protein, B. subtilis, UniProt P45707 1-148, looked up)
chain: MERHYYTYLIKEEFANHYFGRESVMFELFQDYHWTSLEKQQYEMTEKQIQYITQPIPILHMHQRLKMNLNKTDYRQLDYIYRIALPKAKGHATFMMKEHMIEIVASGDYEAETIFFEVLRKVSPCFLAMDFNSKRYGWLNPVKERNFV
modifications: 2-mercaptoethanol linked through a disulphide bond to Cys125 (seen in the crystal and by mass spectrometry)
notes: SirA, B. subtilis, amplified from genomic DNA, untagged; model has residues 2-141, Met1 and residues 142-148 disordered; Soluble only when coexpressed with DnaA^DI; A selenomethionine-substituted form was also crystallised for phasing; also called wild type SirA; native SirA; source: E. coli BL21 (DE3), coexpressed with His-DnaA^DI from pET-YSBLIC3C-DnaA^DISirA
B2: DnaA domain I (DnaA^DI), Bacillus subtilis, His-tag removed (domain or fragment, B. subtilis)
chain: GPAMENILDLWNQALAQIEKKLSKPSFETWMKSTKAHSLQGDTLTITAPNEFARDWLESRYLHLIADTIYELTGEELSIKFVIPQ
notes: DnaA, B. subtilis, domain I (N-terminal domain); residues 1-81 defined in the crystal, C-terminal Gln82 disordered; Calculated molecular mass 9.7 kDa; also called N-terminal domain of DnaA; not shown: His6, N-terminal, cleaved
B3: His-tagged DnaA domain I (His-DnaA^DI), Bacillus subtilis (domain or fragment, B. subtilis, UniProt P05648 1-82, looked up)
chain: MENILDLWNQALAQIEKKLSKPSFETWMKSTKAHSLQGDTLTITAPNEFARDWLESRYLHLIADTIYELTGEELSIKFVIPQ
notes: DnaA, B. subtilis, domain I (N-terminal domain); residues 1-81 defined in the crystal, C-terminal Gln82 disordered; 3C protease cleavable N-terminal His-tag, not cleaved in these experiments; also called His-tagged DnaA^DI; wild type DnaA^DI; source: E. coli BL21 (DE3), coexpressed with SirA from pET-YSBLIC3C-DnaA^DISirA; not shown: His6, N-terminal, kept

The target of assay [1] is B2. The assay is described as follows: SEC-MALS; Superdex 75 HR 10/30, 50 mM Tris pH 8.5, 200 mM KCl, 0.5 ml min^-1; DnaA^DI at 1.0, 2.5 and 5.0 mg ml^-1; SirA-DnaA^DI at 0.5, 1.0 and 2.5 mg ml^-1. The settings on record: both partners purified.
The target in assay [2] is T1, DnaA domain I (DnaA^DI), Bacillus subtilis, His-tag removed (Bacillus subtilis (strain 168), UniProt P05648).
T1 chain: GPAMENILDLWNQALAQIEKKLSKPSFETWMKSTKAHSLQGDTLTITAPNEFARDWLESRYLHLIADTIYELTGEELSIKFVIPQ
The assay is described as follows: SEC-MALLS (1:1 heterodimer), Ni-NTA co-purification/pull-down, crystal structure; SirA soluble only when co-expressed with DnaA^DI; complex purified as such, not mixed from separate proteins.

For assay [3], the target named is B1. The assay is described as follows: crystal structure; native crystals, space group P2_1, two complexes per asymmetric unit; 100 mM HEPES pH 7.5, 200 mM NH4 acetate, 25% PEG 3350, 1% DMF; SAD phasing from SeMet crystals, then molecular replacement. Conditions: both partners purified.
For assay [4], the target named is B1. The assay is described as follows: pull-down; soluble lysate of E. coli coexpressing His-DnaA^DI and untagged SirA loaded onto a HisTrap FF crude Ni-affinity column in 50 mM Tris pH 8.5, 200 mM KCl, 20 mM imidazole, 10 mM BME; washed; eluted with 500 mM imidazole; eluates normalised to DnaA^DI, SDS-PAGE with Coomassie staining, bands quantified with ImageJ. Conditions: partners not purified.

Assay [5] addresses B3. Described as above. Conditions: partners not purified.

On to B1, for which the “stoichiometry N” value in assay [1] was 1. Also, the binding result in assay [2] was “binds”.
For B2, the binding result in assay [3] is recorded as “binds”.
On to B3, for which, in assay [4], the binding result is “binds”.

B4: SirA Y18A, Bacillus subtilis (natural protein, B. subtilis, UniProt P45707 1-148, looked up)
chain: MERHYYTYLIKEEFANHAFGRESVMFELFQDYHWTSLEKQQYEMTEKQIQYITQPIPILHMHQRLKMNLNKTDYRQLDYIYRIALPKAKGHATFMMKEHMIEIVASGDYEAETIFFEVLRKVSPCFLAMDFNSKRYGWLNPVKERNFV
notes: SirA, B. subtilis, untagged, with Tyr18Ala; also called Tyr18Ala; source: E. coli BL21, coexpressed with His-DnaA^DI, in soluble lysate
Consider B4, for which the “fold lower recovery relative to wild type SirA” value in assay [5] worked out at 2.5 fold.

B5: SirA F14A, Bacillus subtilis (natural protein, B. subtilis, UniProt P45707 1-148, looked up)
chain: MERHYYTYLIKEEAANHYFGRESVMFELFQDYHWTSLEKQQYEMTEKQIQYITQPIPILHMHQRLKMNLNKTDYRQLDYIYRIALPKAKGHATFMMKEHMIEIVASGDYEAETIFFEVLRKVSPCFLAMDFNSKRYGWLNPVKERNFV
notes: SirA, B. subtilis, untagged, with Phe14Ala; also called Phe14Ala; source: E. coli BL21, coexpressed with His-DnaA^DI, in soluble lysate
As to B5, the “fold lower recovery relative to wild type SirA” value in assay [5] was 1.5 fold.

B6: SirA Q48A, Bacillus subtilis (natural protein, B. subtilis, UniProt P45707 1-148, looked up)
chain: MERHYYTYLIKEEFANHYFGRESVMFELFQDYHWTSLEKQQYEMTEKAIQYITQPIPILHMHQRLKMNLNKTDYRQLDYIYRIALPKAKGHATFMMKEHMIEIVASGDYEAETIFFEVLRKVSPCFLAMDFNSKRYGWLNPVKERNFV
notes: SirA, B. subtilis, untagged, with Gln48Ala; also called Gln48Ala; source: E. coli BL21, coexpressed with His-DnaA^DI, in soluble lysate
B6: the “fold lower recovery relative to wild type SirA” value in assay [5] came out at 1.5 fold.

Usually stoichiometry N stands for a count of units in the complex or per binding partner.
